The values below come from publication PMC9838835 (PLOS ONE, 2023).

The data set concerns the molecule itself. Briefly: native gel or EMSA. (In general: In EMSA bound probe runs differently from free probe, usually more slowly.)

B1: Human butyrylcholinesterase (enzyme, UniProt P06276 29-602, looked up)
chain: EDDIIIATKNGKVRGMNLTVFGGTVTAFLGIPYAQPPLGRLRFKKPQSLTKWSDIWNATKYANSCCQNIDQSFPGFHGSEMWNPNTDLSEDCLYLNVWIPAPKPKNATVLIWIYGGGFQTGTSSLHVYDGKFLARVERVIVVSMNYRVGALGFLALPGNPEAPGNMGLFDQQLALQWVQKNIAAFGGNPKSVTLFGESAGAASVSLHLLSPGSHSLFTRAILQSGSFNAPWAVTSLYEARNRTLNLAKLTGCSRENETEIIKCLRNKDPQEILLNEAFVVPYGTPLSVNFGPTVDGDFLTDMPDILLELGQFKKTQILVGVNKDEGTAFLVYGAPGFSKDNNSIITRKEFQEGLKIFFPGVSEFGKESILFHYTDWVDDQRPENYREALGDVVGDYNFICPALEFTKKFSEWGNNAFFYYFEHRSSKLPWPEWMGVMHGYEIEFVFGLPLERRDNYTKAEEILSRSIVKRWANFAKYGNPNETQNNSTSWPVFKSTEQKYLTLNTESTRIMTKLRAQQCRFWTSFFPKVLEMTGNIDEAEWEWKAGFHRWNNYMMDWKNQFNDYTSKKESCVGL
notes: also called BChE; C4 (tetramer)
With B1, the stoichiometry N (as a rule, a count of units in the complex or per binding partner) was determined as 4.
